Experimental data taken from patent US20170066836A1 (NATIONAL UNIVERSITY CORPORATION KOCHI UNIVERSITY, published 2017).

How the values were obtained:
[1] = target: T1, human Glypican-1 forcibly expressed on CT01 chicken T-lymphoblast-like cells (CT01-GPC-1#42) (human, UniProt P35052 24-530); experiment: FACS: clone as primary antibody, FITC-labeled goat anti-mouse IgG as secondary; CT01 cells forcibly expressing human Glypican-1 (CT01-GPC-1#42), Glypican-1-negative CT01 cells as negative cells
T1 sequence: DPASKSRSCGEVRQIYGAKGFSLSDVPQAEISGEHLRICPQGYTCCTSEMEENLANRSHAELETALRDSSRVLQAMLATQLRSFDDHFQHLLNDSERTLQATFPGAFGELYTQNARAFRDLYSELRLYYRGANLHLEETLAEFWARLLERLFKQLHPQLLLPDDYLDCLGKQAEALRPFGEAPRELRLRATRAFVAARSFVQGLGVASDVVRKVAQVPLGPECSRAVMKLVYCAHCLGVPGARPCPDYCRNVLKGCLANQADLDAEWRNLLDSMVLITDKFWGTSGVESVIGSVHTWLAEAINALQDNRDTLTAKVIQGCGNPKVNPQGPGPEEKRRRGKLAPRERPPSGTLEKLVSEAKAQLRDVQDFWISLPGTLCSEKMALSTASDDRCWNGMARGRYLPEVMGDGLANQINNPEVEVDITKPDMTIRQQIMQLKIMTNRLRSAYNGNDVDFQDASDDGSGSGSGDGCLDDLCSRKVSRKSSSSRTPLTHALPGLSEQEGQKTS
Procedure: In carrying out FACS analysis using an antibody, a chicken T-lymphoblast-like cell strain (CT01 cell) was used as a Glypican-1 negative cell and a CT01 cell (CT01-GPC-1#42) forcibly expressing human Glypican-1 was used as a Glypican-1 positive cell. Various clones of the developed antibodies were used as primary antibodies, a FITC-labeled Goat anti-Mouse IgG (H+L chain specific) (Southern Biotech) was used as a secondary antibody, measurement was carried out using FACS Cantoll (BD), and the measurement data was analyzed using Flow Jo (Tree Star). As a result, twenty types of clones were successfully developed as antibodies that can stain Glypican-1 with FACS.

[2] = target: T2, mouse Glypican-1 expressed on 293 cells (mouse, UniProt Q9QZF2 24-529); experiment: FACS on 293 cells forcibly expressing mouse GPC1
T2 construct: whole, on cells; also called mouse GPC-1; mouse GPC1
T2 sequence (looked up): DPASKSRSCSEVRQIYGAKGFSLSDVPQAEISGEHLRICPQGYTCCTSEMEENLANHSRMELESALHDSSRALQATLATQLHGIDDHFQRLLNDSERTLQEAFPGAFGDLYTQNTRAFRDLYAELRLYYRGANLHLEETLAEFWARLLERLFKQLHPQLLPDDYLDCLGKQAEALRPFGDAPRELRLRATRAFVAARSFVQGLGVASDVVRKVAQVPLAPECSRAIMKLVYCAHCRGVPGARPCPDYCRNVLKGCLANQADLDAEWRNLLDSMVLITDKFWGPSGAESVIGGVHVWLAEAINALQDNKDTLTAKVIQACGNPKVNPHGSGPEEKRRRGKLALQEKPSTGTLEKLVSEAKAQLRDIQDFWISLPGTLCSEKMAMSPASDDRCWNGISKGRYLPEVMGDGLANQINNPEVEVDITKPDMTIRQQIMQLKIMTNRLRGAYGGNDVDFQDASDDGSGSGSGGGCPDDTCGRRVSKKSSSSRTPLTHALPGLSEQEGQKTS
Procedure: A mouse Glypican-1 expression vector or an empty vector was transfected to the 293 cell using lipofectamine 2000 and the reactivity with various clones of an anti-Glypican-1 antibody was analyzed by FACS.

[3] = target: T3, human Glypican-3 expressed on 293 cells (pFLAG-CMV3 hGPC3) (human, UniProt P51654 25-554); experiment: FACS on 293 cells transfected with pFLAG-CMV3 hGPC3
T3 construct: whole, on cells; FLAG-tagged through the vector; also called human GPC-3
Procedure: Subsequently, a characteristic of various anti-Glypican-1 antibodies that reacted with Glypican-1, but not with Glypican-3 was determined to prepare a chimeric protein expression vector having an amino acid sequence of the 430th or more position of Glypican-1 substituted with that of Glypican-3 (FIG. 17). Various expression vectors were transfected into the 293 cell and the reactivity with various anti-Glypican-1 antibodies was analyzed by FACS. Consequently, since the reactivity in FACS is not recognized in three clones #17(2-60), #2(1-5), and #10(1-57), it is believed that the epitope region in these clones is present in the 430th to the 530th corresponding to an extracellular region of Glypican-1 (FIG. 18).

[4] = target: T4, recombinant Glypican-1 (R&D systems 4519-GP-050) (Homo sapiens (Human), UniProt P35052 24-530); experiment: SPR (Biacore 3000): antibody captured by rabbit anti-mouse IgG on a CM5 chip, recombinant Glypican-1 added at various concentrations
T4 construct: Bought protein
T4 sequence: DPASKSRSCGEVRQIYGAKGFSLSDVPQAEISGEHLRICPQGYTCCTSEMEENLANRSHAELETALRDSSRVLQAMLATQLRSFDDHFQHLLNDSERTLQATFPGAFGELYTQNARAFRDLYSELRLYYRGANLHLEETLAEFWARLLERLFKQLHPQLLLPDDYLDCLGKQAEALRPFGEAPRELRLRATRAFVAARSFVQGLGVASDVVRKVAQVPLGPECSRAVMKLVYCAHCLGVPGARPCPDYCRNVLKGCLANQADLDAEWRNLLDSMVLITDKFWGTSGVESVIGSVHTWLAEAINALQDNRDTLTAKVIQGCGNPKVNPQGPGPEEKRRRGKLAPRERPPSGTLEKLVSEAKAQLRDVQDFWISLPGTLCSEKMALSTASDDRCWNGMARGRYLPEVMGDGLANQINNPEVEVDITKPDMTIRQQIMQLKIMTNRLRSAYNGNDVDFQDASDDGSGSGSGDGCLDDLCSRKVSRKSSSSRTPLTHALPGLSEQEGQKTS
Procedure: (§1) Affinity analysis of an anti-Glypican-1 antibody was measured using Biacore 3000. A rabbit anti-mouse IgG polyclonal antibody of the Mouse Antibody Capture Kit was solid-phased to a CM5 sensor tip, various anti-Glypican1 antibody clones were captured, recombinant Glypican-1 (R&D systems 4519-GP-050) was added at various concentrations as a ligand, and binding and dissociation were monitored. The obtained sensorgram was analyzed using BIAevaluation 4.1 software and a KD value was calculated (FIG. 12).

[5] = target: T4, recombinant Glypican-1 (R&D systems …); experiment: Biacore 3000 (SPR): antibody captured on rabbit anti-mouse IgG on a CM5 chip, recombinant Glypican-1 added at various concentrations; BIAevaluation 4.1
Procedure: as §1

T3 sequence (P51654 25-554 limits assumed): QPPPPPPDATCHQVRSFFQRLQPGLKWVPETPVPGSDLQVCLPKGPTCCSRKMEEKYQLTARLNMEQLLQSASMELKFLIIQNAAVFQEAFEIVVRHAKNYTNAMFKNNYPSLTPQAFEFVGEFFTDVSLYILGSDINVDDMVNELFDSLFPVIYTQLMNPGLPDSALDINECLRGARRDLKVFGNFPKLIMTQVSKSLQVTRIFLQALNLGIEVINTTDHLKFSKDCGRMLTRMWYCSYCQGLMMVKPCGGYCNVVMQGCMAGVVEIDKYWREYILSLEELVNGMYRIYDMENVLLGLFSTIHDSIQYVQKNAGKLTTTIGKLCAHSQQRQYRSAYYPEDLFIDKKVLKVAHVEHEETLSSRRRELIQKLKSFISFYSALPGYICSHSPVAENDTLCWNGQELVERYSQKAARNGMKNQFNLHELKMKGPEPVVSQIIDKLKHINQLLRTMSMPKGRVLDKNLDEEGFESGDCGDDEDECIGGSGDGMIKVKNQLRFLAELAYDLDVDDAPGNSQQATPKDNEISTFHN

Binder | binding result [1] | binding result [2] | binding result [3] | Kd [4] | koff [5] | kon [5] | Kd [5]
anti-GPC-1 antibody 1-50 (antibody, V domains shown, detection was with anti-mouse IgG) VH: AVTLDESGGGLQTPGGALSLVCKASGFTFNNNGMSWVRQAPGKGLEWVAGISGAGYSNYAPAVKGRATISRDNGQSTVRLQLNSLRAEDTGTYFCAKVASSCGNECYTSGFIDAWGHGTEVIVST VL: ALTQPASVSANLGGTVKITCSGGSGSYGWYQQKSPGSAPVTVIFWDNERPSDIPSRFSGSKSGSTHTLTITGVQAEDEAVYFCGSRDRMYDGIFGAGTTLTV | binds | – | – | – | – | – | –
anti-GPC-1 antibody 1-12 (antibody, V domains shown, it was captured and detected with anti-mouse IgG and the control was mouse IgG2a; also called #4; clone 1-12) VH: AVTLDESGGGLQTPGRALSLVCKASGFTFSRYAMYWVRQAPGKGLEFVAGIGNTGRYTGYGSAVKGRATISRDSGQSTVRLQLNNLRAEDTGNYYCAKSVSPYCCDAADIDAWGHGTEVIVST VL: ALTQPASVSANPGETVKITCSGGSSGYAYGWYQQKSPGSAPVTLLYSNNNRPSDIPSRFSGSKSGSTATLTITGVQAEDEAVYFCGSVDSSSYAGIFGAGTTLTV | – | binds | no binding | 2.61 nM | 0.000488 s⁻¹ | 187000 M⁻¹ s⁻¹ | –
anti-GPC-1 antibody 2-70 (antibody, V domains shown, detection was with anti-mouse IgG and the control was mouse IgG2a; also called #19; clone 2-70) VH: AVTLDESGGGLQTPGGALSLVCKASGLSTFSDRGMHWVRQAPGKGLEFVAAISSSGRFTLYGAAVKGRATISRDNGQSTVRLQLNDLRAEDTAIYYCARGTTTGWWADAGEIDAWGHGTEVIVST VL: ALTQPAFMSANPGETVKITCSGGSYSAYGWFQQKSPGSAPVTLIYNDNIRPSDISSRFSGSKSGSTATLTITGVQADDEAVYFCGNEDRNNTATFGAGTTLTV | – | – | no binding | – | – | – | –
anti-GPC-1 antibody 1-4 (antibody, V domains shown, detection was with anti-mouse IgG) VH: AVTLEESGGGLQTPGGGLSLVCKASGFDFRNNGMAWVRQAPGKGLEWVAGISGTAYAVYGAAVKGRATISRDNGQSTVRLQLNNLRAEDTATYYCAKTVGSCGIDCHTTGFIDGWGHGTEVIVST VL: ALTQPSSVSANPGETVKITCSGGSYSYGWFQQKSPGSAPVTVIYWDDERPSGIPSRFSGSKSGSTGTLTITGVQAEDEAVYFCGSRDSSYVGIFGAGTTLTV | binds | – | – | – | – | – | –
anti-GPC-1 antibody 1-57 (antibody, V domains shown, detection was with anti-mouse IgG and the control was mouse IgG2a; also called #10; clone 1-57) VH: AVTLDESGGGLQTPGGGLSLVCKGSGFTLTDRGMHWVRQAPGKGLEWVAAISSSGRFTLYAPAVTGRATISRDNGQSTVRLQLNNLRAEDTGTYYCARGNAGGWWADGGEIDAWGHGTEVIVST VL: ALTQPSSVSANPGETVKITCSGGSGSYGWFQQKSPGSAPVTVIYSNNKRPTDIPSRFSGSKSGSTNTLTITGVQADDEAVYFCGSADSSYIGIFGAGTTLTV | – | binds | no binding | – | 0.00213 s⁻¹ | 12100 M⁻¹ s⁻¹ | 176 nM
anti-GPC-1 antibody 1-5 (antibody, V domains shown, detection was with anti-mouse IgG and the control was mouse IgG2a; also called #2; clone 1-5) VH: AVTLDESGGGLQTPGGALSLVCKASGFKFRSYDMYWVRQAPGKGLEYVAGIINTGRETYYGAAVKGRATISRDNGRSTVRLQLNNLRAEDTGTYFCAKGAAWNYAGSIDAWGHGTEVIVST VL: ALTQPASVSANPGETVKITCSGGSGSYGWYQQKSPGSAPVTVIYGDNKRPTDISSRFSGSTSGSTNTLTITGVQAEDEAVYFCGSRDNTYAGIFGAGTTLTV | – | binds | no binding | – | 0.000951 s⁻¹ | 45500 M⁻¹ s⁻¹ | 20.9 nM
anti-GPC-1 antibody 2-63 (antibody, V domains shown, detection was with anti-mouse IgG and the control was mouse IgG2a; also called #18; clone 2-63) VH: AVTLDESGGGLQTPGGTLSLVCKASGFDFSSVNMFWVRQAPGKGLEFVAGIDNDATFTLYGSAVKGRASISRDNGQSTVRLQLNNLRAEDTGTYYCAKTLCSTTWGCGAYSAGDIDAWGHGTEVTVST VL: ALTQPSSVSANPGETVKITCSGGGSSGYGYYGWYQQKSPGSAPVTVIYNNNKRPTDIPSRFSGALSGSTATLTITGVQVEDEAVYYCGSRDNTYVGIFGAGTTLTV | – | – | – | – | 0.000848 s⁻¹ | 137000 M⁻¹ s⁻¹ | 6.19 nM
anti-GPC-1 antibody 1-30 (antibody, V domains shown, detection was with anti-mouse IgG) VH: AVTLDESGGGLQTPGGGLSLVCKASGFTLNSYDMLWVRQAPGKGLEFVAAISIASGSSYAPAVKGRATISRDNGQSTVRLQLNNLRAEDTGTYYCARGGTGYYYSDATGQIDAWGHGTEVIVST VL: ALTQPSSVSANPGETVKITCSGGSSGYGYGWYQQKAPGSAPVTVIYSNNQRPSNIPSRFSGSTSGSTSTLTITGVQADDEAVYYCGSTDSSTYDGIFGAGTTLTV | binds | – | – | – | – | – | –
anti-GPC-1 antibody 1-10 (antibody, V domains shown, detection was with anti-mouse IgG) VH: AVTLDESGGGLQTPGGGLSLVCKASGFTFSGYDMMWVRQAPGKGLEWVGQISSTGSIQKYGAAVKGRATISRDNGQSTMRLQLNDLRAEDTGTYFCAKSAYGYSSSGPEDIDAWGHGTEVIVST VL: ALTQPASVSANLGGTVKITCSGGSSDAYGWYQQKSPDSAPVTVIYGNNNRPSDIPSRFSGSTSGSTNTLTITGVQADDEAVYFCGSYDGSTDSDGIFGAGTTLTV | binds | – | – | – | – | – | –
anti-GPC-1 antibody 2-60 (antibody, V domains shown, detection was with anti-mouse IgG and the control was mouse IgG2a; also called #17; clone 2-60) VH: AVTLDESGGGLQTPGGALSLVCKASGFTYSSYAMGWVRQAPGKGLEFVASISSDGSDTAYGSAVKGRATISRDNRQSTLRLQLNNLRAEDTGTYYCAKSYRCSWNCWDYAAKIDAWGHGTEVTVS VL: VALTQPASVSANPGETVKITCSGSGSYTGSYYYGWYQQKSPGSAPVTVIYNNNKRPSDIPSRFSGSTSGSTATLTITGVQAEDEAVYFCGSYDRSSDSGIFGAGTTLTV | – | – | no binding | – | 0.00105 s⁻¹ | 69100 M⁻¹ s⁻¹ | 15.2 nM
anti-GPC-1 antibody 1-18 (antibody, V domains shown, detection was with anti-mouse IgG) VH: AVTLDESGGGLQTPGGALSLVCKASGFTFSSYTMFWVRQAPGKGLEFVAGIDNTGIYTPYGSAVKGRATISRDNGQSTVRLQLNNLRAEDTGTYYCAKYADACTGPWCGSSAYTGSTIDAWGHGTEVTVST VL: ALTQPSSVSANPGETVKLTCSGGGSYYGWYQQKSPGSAPVTVIYENTERPSNIPSRFSGSTSGSTSTLTIIGVQADDEAVYFCGGYDSSTDAGIFGAGTTLTV | binds | – | – | – | – | – | –
anti-GPC-1 antibody 1-28 (antibody, V domains shown, detection was with anti-mouse IgG and the control was mouse IgG2a; also called #7; clone 1-28) VH: AVTLDESGGGLQTPGRALSLVCKASGFTFSSYTMFWVRQAPGKGLEFVAGIDNTGIYTPYGSAVKGRATISRDNGQSTVRLQLNNLRAEDTGTYYCAKYADACTGPWCGSSAYTASTIDAWGHGTEVIVST VL: ALTQPASVSANLGGTVEITCSGGGNDYGWYQQKSPGSAPVTVIYDSINRPSNIPSRFSGSTSGSTATLTITGVQADDEAVYFCGSYDSSYVGIFGAGTTLTV | – | binds | no binding | – | – | – | –
